These results are taken from paper PMC11004252, “Cooperative interaction of interferon regulatory factor -1 and bromodomain—containing protein 4 on RNA polymerase activation for intrinsic innate immunity” (Frontiers in Immunology, 2024).

The assay concerns the target T1, Bromodomain containing protein 4 (BRD4) (human (endogenous in hSAECs), UniProt O60885 1-1362).
T1 construct: BRD4, endogenous in hSAECs; detected in situ with rabbit BRD4 Ab (Cell Signaling 13440); also called BRD4 CRC; source: endogenous, hSAECs (fixed cells, mock or RSV infected)
The experiment in a line: proximity ligation; Duolink in situ PLA, mouse anti-IRF1 and rabbit anti-BRD4 Abs, fixed hSAECs, RSV infected (MOI 1, 24 h), with solvent (DMSO) or BRD4i ZL0454 (complex unaffected by BRD4i). As to conditions: partners not purified.

B1: interferon regulatory factor 1 (IRF1) (natural protein, human (endogenous in hSAECs), UniProt P10914 1-325, looked up)
chain: MPITRMRMRPWLEMQINSNQIPGLIWINKEEMIFQIPWKHAAKHGWDINKDACLFRSWAIHTGRYKAGEKEPDPKTWKANFRCAMNSLPDIEEVKDQSRNKGSSAVRVYRMLPPLTKNQRKERKSKSSRDAKSKAKRKSCGDSSPDTFSDGLSSSTLPDDHSSYTVPGYMQDLEVEQALTPALSPCAVSSTLPDWHIPVEVVPDSTSDLYNFQVSPMPSTSEATTDEDEEGKLPEDIMKLLEQSEWQPTNVDGKGYLLNEPGVQPTSVYGDFSCKEEPEIDSPGGDIGLSLQRVFTDLKNMDATWLDSLLTPVRLPSIQAIPCAP
notes: IRF1, endogenous in telomerase-immortalized human small airway epithelial cells (hSAECs); detected in situ with mouse IRF1 Ab (R&D MAB4830-SO); source: endogenous, hSAECs (fixed cells, mock or RSV infected)
On to B1, for which the “fold increase of PLA complex, RSV against mock” value amounted to 25 fold.
